# Measured values reported in patent publication US20190309059A1 (SHANGHAI PHARMAEXPLORER, published 2019).
# B1: c35H6E1 (mouse-human chimeric IL-13 antibody) (antibody, V domains shown)
# VH: QVTLKESGPGILQSSQTLSLTCSFSGFSLSTSNMGVSWIRQPSGKGLEWLAHIYWDDDKRYNPSLESRLTISKDTSRNQVFLKITSVDTADSATYYCARRTNYFSTRDYFDYWGQGTTLTVSS
# VL: DIQMTQSPASLSVSVGETVTITCRASENIYSNLVWYQQKQGKSPQLLVYAATKLADGVPSRFSGSGSGTQYSLKINSLQSEDFGSYYCQHFWGFPWTFGGGTKLEIK
# B2: c70F10A10 (mouse-human chimeric IL-13 antibody) (antibody, V domains shown)
# VH: QIQLQQSGAELARPGASVKLSCKASGYTFTSYGISWVKQRDGQGLEWIGEIYPRSGNTDYNEKFKGKATLTADKSSSTAYMELRSLTSEDSAVYFCSSFTTLVPTDYFDYWGQGTTLTVSS
# VL: DIMMSQSPSSLAVSVGEKVSMTCKSSQSLLYSSNQKNYLAWYQQKPGQSPKMLIYWASTRETGVPDRFTGSGSGTDFTLTISSVMAEDLAVYYCHQYFTYPRTFGDGTKLEVK
# B3: 70F10A10 (lead antibody, mouse hybridoma) (antibody, V domains shown)
# VH: B2 VH
# VL: B2 VL
# Assays:
# [1] = target: his-labeled human IL-13R130Q variant (human) (UniProt P35225); assay: ELISA, IL-13R130Q variant; antibody at 0.11 nM
# [2] = target: his-labeled human IL-13R130Q variant (human) (UniProt P35225); assay: ELISA, IL-13R130Q variant; antibody at 0.004 nM
# [3] = target: his-labeled human IL-13R130Q variant (human) (UniProt P35225); assay: ELISA, IL-13R130Q variant; antibody at 0.53 nM
# [4] = target: his-labeled human IL-13R130Q variant (human) (UniProt P35225); assay: ELISA, IL-13R130Q variant; antibody at 66.67 nM
# [5] = target: his-labeled human IL-13 (immunogen A) (human) (UniProt P35225); assay: SPR (Biacore)
# [6] = target: his-labeled human IL-13R130Q variant (human) (UniProt P35225); assay: ELISA, IL-13R130Q variant; antibody at 13.33 nM
# [7] = target: his-labeled human IL-13R130Q variant (human) (UniProt P35225); assay: ELISA, IL-13R130Q variant; antibody at 2.67 nM
# [8] = target: his-labeled human IL-13 (immunogen A) (human) (UniProt P35225); assay: SPR (Biacore), antibody captured by anti-human Fc, immunogen A as analyte
# [9] = target: his-labeled human IL-13R130Q variant (human) (UniProt P35225); assay: ELISA, IL-13R130Q variant; antibody at 0.021 nM
# [10] = target: his-labeled human IL-13 (immunogen A) (human) (UniProt P35225); assay: FACS blocking, biotin-IL-13 on IL-13Ra1/IL-4Ra HEK293 cells; antibody at 166.67 nM
# [11] = target: his-labeled human IL-13 (immunogen A) (human) (UniProt P35225); assay: FACS blocking assay: antibody titrated with biotin-labeled immunogen A (30 ng/mL); blocked partner IL-13Ra1/IL-4Ra on HEK293 clone 4C1; Alexa 488 streptavidin
# [12] = target: his-labeled human IL-13 (immunogen A) (human) (UniProt P35225); assay: FACS blocking, biotin-IL-13 on IL-13Ra1/IL-4Ra HEK293 cells; antibody at 0.002 nM
# [13] = target: his-labeled human IL-13 (immunogen A) (human) (UniProt P35225); assay: FACS blocking, biotin-IL-13 on IL-13Ra1/IL-4Ra HEK293 cells; antibody at 0.05 nM
# [14] = target: his-labeled human IL-13 (immunogen A) (human) (UniProt P35225); assay: FACS blocking, biotin-IL-13 on IL-13Ra1/IL-4Ra HEK293 cells; antibody at 0.01 nM
# [15] = target: his-labeled human IL-13 (immunogen A) (human) (UniProt P35225); assay: FACS blocking, biotin-IL-13 on IL-13Ra1/IL-4Ra HEK293 cells; antibody at 6.67 nM
# [16] = target: his-labeled human IL-13 (immunogen A) (human) (UniProt P35225); assay: FACS blocking assay: antibody titrated with biotin-labeled immunogen A (20 ng/mL); blocked partner IL-13Ra2 on HEK293 clone 1A1; Alexa 488 streptavidin
# [17] = target: his-labeled human IL-13 (immunogen A) (human) (UniProt P35225); assay: FACS blocking, biotin-IL-13 on IL-13Ra2 HEK293 cells; antibody at 0.05 nM
# [18] = target: his-labeled human IL-13 (immunogen A) (human) (UniProt P35225); assay: FACS blocking, biotin-IL-13 on IL-13Ra2 HEK293 cells; antibody at 0.01 nM
# [19] = target: his-labeled human IL-13 (immunogen A) (human) (UniProt P35225); assay: FACS blocking, biotin-IL-13 on IL-13Ra2 HEK293 cells; antibody at 6.67 nM
# [20] = target: his-labeled human IL-13 (immunogen A) (human) (UniProt P35225); assay: FACS blocking, biotin-IL-13 on IL-13Ra2 HEK293 cells; antibody at 0.27 nM
# [21] = target: his-labeled human IL-13 (immunogen A) (human) (UniProt P35225); assay: FACS blocking, biotin-IL-13 on IL-13Ra1/IL-4Ra HEK293 cells; antibody at 0.27 nM
# [22] = target: his-labeled human IL-13 (immunogen A) (human) (UniProt P35225); assay: FACS blocking, biotin-IL-13 on IL-13Ra2 HEK293 cells; antibody at 1.33 nM
# [23] = target: his-labeled human IL-13 (immunogen A) (human) (UniProt P35225); assay: cell-based or functional assay
# [24] = target: his-labeled human IL-13 (immunogen A) (human) (UniProt P35225); assay: FACS blocking, biotin-IL-13 on IL-13Ra2 HEK293 cells; antibody at 166.67 nM
# [25] = target: his-labeled human IL-13 (immunogen A) (human) (UniProt P35225); assay: FACS blocking, biotin-IL-13 on IL-13Ra2 HEK293 cells; antibody at 0.002 nM
# [26] = target: his-labeled human IL-13 (immunogen A) (human) (UniProt P35225); assay: FACS blocking, biotin-IL-13 on IL-13Ra2 HEK293 cells; antibody at 33.33 nM
# [27] = target: his-labeled human IL-13 (immunogen A) (human) (UniProt P35225); assay: FACS blocking, biotin-IL-13 on IL-13Ra1/IL-4Ra HEK293 cells; antibody at 33.33 nM
# [28] = target: his-labeled human IL-13 (immunogen A) (human) (UniProt P35225); assay: FACS blocking, biotin-IL-13 on IL-13Ra1/IL-4Ra HEK293 cells; antibody at 1.33 nM
# Sequence of his-labeled human IL-13R130Q variant (human) (P35225 other isoform, or with tags, fused parts or gaps mutant): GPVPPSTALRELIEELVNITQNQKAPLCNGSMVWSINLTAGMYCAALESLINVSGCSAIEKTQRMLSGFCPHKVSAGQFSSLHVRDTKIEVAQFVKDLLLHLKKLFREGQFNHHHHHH
binder,measurement,setting,value
B1,OD450 nm,[1],0.8
same,OD450 nm,[2],0.11
same,OD450 nm,[3],2.13
same,OD450 nm,[4],3.31
same,Kd,[5],< 90000 pM
same,OD450 nm,[6],3.23
same,OD450 nm,[7],2.97
same,Kd,[8],336 pM
same,koff,[8],0.000445 s⁻¹
same,kon,[8],1.33e+06 M⁻¹ s⁻¹
same,OD450 nm,[9],0.23
B2,mean fluorescence intensity,[10],20.8
same,IC50 (read off the curve),[11],1000 pM
same,mean fluorescence intensity,[12],96
same,mean fluorescence intensity,[13],96.9
same,mean fluorescence intensity,[14],98.3
same,mean fluorescence intensity,[15],27.3
same,IC50 (read off the curve),[16],700 pM
same,mean fluorescence intensity,[17],94
same,mean fluorescence intensity,[18],97.6
same,mean fluorescence intensity,[19],31
same,Kd,[5],< 90000 pM
same,mean fluorescence intensity,[20],78.4
same,mean fluorescence intensity,[21],83.7
same,mean fluorescence intensity,[22],49.1
same,"Periostin (pg/mL), MRCS cells + IL-13 5 ng/mL; antibody at 0.0002 nM",[23],6960 pg/mL
same,"Periostin (pg/mL), MRCS cells + IL-13 5 ng/mL; antibody at 0.001 nM",[23],6050 pg/mL
same,"Periostin (pg/mL), MRCS cells + IL-13 5 ng/mL; antibody at 0.004 nM",[23],5010 pg/mL
same,"Periostin (pg/mL), MRCS cells + IL-13 5 ng/mL; antibody at 0.021 nM",[23],4540 pg/mL
same,"Periostin (pg/mL), MRCS cells + IL-13 5 ng/mL; antibody at 0.11 nM",[23],4570 pg/mL
same,"Periostin (pg/mL), MRCS cells + IL-13 5 ng/mL; antibody at 0.53 nM",[23],3660 pg/mL
same,"Periostin (pg/mL), MRCS cells + IL-13 5 ng/mL; antibody at 2.67 nM",[23],2620 pg/mL
same,"Periostin (pg/mL), MRCS cells + IL-13 5 ng/mL; antibody at 13.3 nM",[23],1260 pg/mL
same,"TARC (pg/mL), A549 cells + IL-13 + TNFα; antibody at 0.001 nM",[23],2610 pg/mL
same,"TARC (pg/mL), A549 cells + IL-13 + TNFα; antibody at 0.004 nM",[23],3030 pg/mL
same,"TARC (pg/mL), A549 cells + IL-13 + TNFα; antibody at 0.021 nM",[23],2770 pg/mL
same,"TARC (pg/mL), A549 cells + IL-13 + TNFα; antibody at 0.11 nM",[23],2780 pg/mL
same,"TARC (pg/mL), A549 cells + IL-13 + TNFα; antibody at 0.53 nM",[23],2800 pg/mL
same,"TARC (pg/mL), A549 cells + IL-13 + TNFα; antibody at 2.67 nM",[23],2240 pg/mL
same,"TARC (pg/mL), A549 cells + IL-13 + TNFα; antibody at 13.3 nM",[23],1120 pg/mL
same,"TARC (pg/mL), A549 cells + IL-13 + TNFα; antibody at 66.7 nM",[23],348 pg/mL
same,"VCAM-1 fluorescence intensity, HUVEC + IL-13 0.5 ng/mL + TNFα; antibody at 0.0002 nM",[23],368
same,"VCAM-1 fluorescence intensity, HUVEC + IL-13 0.5 ng/mL + TNFα; antibody at 0.001 nM",[23],343
same,"VCAM-1 fluorescence intensity, HUVEC + IL-13 0.5 ng/mL + TNFα; antibody at 0.004 nM",[23],374
same,"VCAM-1 fluorescence intensity, HUVEC + IL-13 0.5 ng/mL + TNFα; antibody at 0.021 nM",[23],403
same,"VCAM-1 fluorescence intensity, HUVEC + IL-13 0.5 ng/mL + TNFα; antibody at 0.11 nM",[23],316
same,"VCAM-1 fluorescence intensity, HUVEC + IL-13 0.5 ng/mL + TNFα; antibody at 0.53 nM",[23],286
same,"VCAM-1 fluorescence intensity, HUVEC + IL-13 0.5 ng/mL + TNFα; antibody at 2.67 nM",[23],272
same,"VCAM-1 fluorescence intensity, HUVEC + IL-13 0.5 ng/mL + TNFα; antibody at 13.3 nM",[23],223
same,mean fluorescence intensity,[24],24.6
same,mean fluorescence intensity,[25],97.5
same,mean fluorescence intensity,[26],27.8
same,mean fluorescence intensity,[27],22.6
same,Kd,[8],1020 pM
same,koff,[8],0.000271 s⁻¹
same,kon,[8],267000 M⁻¹ s⁻¹
same,mean fluorescence intensity,[28],53.3
B3,mean fluorescence intensity,[10],19.3
same,mean fluorescence intensity,[12],72.5
same,mean fluorescence intensity,[13],67.6
same,mean fluorescence intensity,[14],73.5
same,mean fluorescence intensity,[15],24.7
same,IC50 (read off the curve),[16],100 pM
same,mean fluorescence intensity,[17],70.8
same,mean fluorescence intensity,[18],75.6
same,mean fluorescence intensity,[19],42.3
same,mean fluorescence intensity,[20],46.8
same,mean fluorescence intensity,[21],51.9
same,mean fluorescence intensity,[22],46
same,"TARC (pg/mL), A549 cells + IL-13 5 ng/mL + TNFα; antibody at 0.001 nM",[23],2000 pg/mL
same,"TARC (pg/mL), A549 cells + IL-13 5 ng/mL + TNFα; antibody at 0.004 nM",[23],1830 pg/mL
same,"TARC (pg/mL), A549 cells + IL-13 5 ng/mL + TNFα; antibody at 0.021 nM",[23],1600 pg/mL
same,"TARC (pg/mL), A549 cells + IL-13 5 ng/mL + TNFα; antibody at 0.11 nM",[23],1630 pg/mL
same,"TARC (pg/mL), A549 cells + IL-13 5 ng/mL + TNFα; antibody at 0.5 nM",[23],1500 pg/mL
same,"TARC (pg/mL), A549 cells + IL-13 5 ng/mL + TNFα; antibody at 2.7 nM",[23],1140 pg/mL
same,"TARC (pg/mL), A549 cells + IL-13 5 ng/mL + TNFα; antibody at 13.3 nM",[23],656 pg/mL
same,"TARC (pg/mL), A549 cells + IL-13 5 ng/mL + TNFα; antibody at 66.7 nM",[23],207 pg/mL
same,mean fluorescence intensity,[24],37.8
same,mean fluorescence intensity,[25],76.7
same,mean fluorescence intensity,[26],39.1
same,mean fluorescence intensity,[27],20.3
same,mean fluorescence intensity,[28],30.7
